Reference: patent US20210017281A1 (IMMUNEXT, published 2021)

Target: T1, human VISTA (human, UniProt Q9H7M9 33-194, limits assumed)
T1 construct: The ELISA text says only recombinant VISTA; also called recombinant VISTA
Assay: method not stated (Table 1, column Kd, M)

Binder	Kd [nM]
INX903 | VSTB95 (antibody, V domains shown, INX903 = VSTB95 variable regions with wild-type human IgG2 constant regions) VH: EVQLVESGGGLVQPGGSLRLSCAASGFTFRNYGMSWVRQAPGKGLEWVASIISGGSYTYYPDSVKGRFTISRDNAKNSLYLQMNSLRAEDTAVYYCARIYDHDGDYYAMDYWGQGTTVTVSS VL: DIVMTQSPLSLPVTPGEPASISCRSSQSIVHSNGNTYLEWYLQKPGQSPQLLIYKVSNRFSGVPDRFSGSGSGTDFTLKISRVEAEDVGVYYCFQGSHVPWTFGQGTKLEIK	0.126
INX909 | VSTB67 (antibody, V domains shown) VH: QVQLVQSGAEVKKPGASVKVSCKASDYIFSSYWIQWVRQAPGQGLEWMGEIFPGSGGTNYNEKFKGRVTMTRDTSTSTVYMELSSLRSEDTAVYYCARAIYYDYDMYYFDSWGQGTTVTVSS VL: DIQMTQSPSSLSASVGDRVTITCRASQDISSYLNWYQQKPGKVPKLLIYYTSRLHSGVPSRFSGSGSGTDFTLTISSLQPEDVATYYCQHVNTLPWTFGQGTKLEIKR	0.0629
INX913 | VSTB85 (antibody, V domains shown) VH: QVQLVQSGAEVKKPGASVKVSCKASGYTFTDYAMHWVRQAPGQGLEWMGVIDTYYGNTNYNQKFKGRVTMTRDTSISTAYMELSRLRSDDTAVYYCARGGGDALDYWGQGTTVTVSS VL: DIQMTQSPSSLSASVGDRVTITCKASQSVSNDVVWYQQKPGKAPKLLIYYASNRYIGVPSRFSGSGSGTDFTFTISSLQPEDIATYYCQQGYTSLRTFGQGTKLEIKR	0.0378
INX919 | VSTB115 (antibody, V domains shown) VH: QVQLVQSGAEVKKPGSSVKVSCKASGGTFSSYAISWVRQAPGQGLEWMGGIIPIFGTANYAQKFQGRVTITADESTSTAYMELSSLRSEDTAVYYCARSSYGWSYEFDYWGQGTLVTVSS VL: DIQMTQSPSSLSASVGDRVTITCRASQSIRTYLNWYQQKPGKAPKLLIYAASSLQSGVPSRFSGSGSGTDFTLTISSLQPEDFATYYCQQAYSNPITFGQGTKVEIKR	0.145
INX915 | VSTB106 (antibody, V domains shown) VH: QVQLVQSGAEVKKPGSSVKVSCKASGGTFSSYAISWVRQAPGQGLEWMGGIIPIFGTANYAQKFQGRVTITADESTSTAYMELSSLRSEDTAVYYCARSSYGWSYEFDYWGQGTLVTVSS VL: DIQMTQSPSSLSASVGDRVTITCRASQSIRTDLNWYQQKPGKAPKLLIYSASSLQSGVPSRFSGSGSGTDFTLTISSLQPEDFATYYCQQNERTPITFGQGTKVEIKR	0.167
INX916 | VSTB107 (antibody, V domains shown) VH: QVQLVQSGAEVKKPGSSVKVSCKASGGTFSSYAISWVRQAPGQGLEWMGGIIPIFGTANYAQKFQGRVTITADESTSTAYMELSSLRSEDTAVYYCARSSYGWSYEFDYWGQGTLVTVSS VL: DIQMTQSPSSLSASVGDRVTITCRASQSINNDLNWYQQKPGKAPKLLIYAASSLQSGVPSRFSGSGSGTDFTLTISSLQPEDFATYYCQQNRATPITFGQGTKVEIKR	0.089
INX917 | VSTB110 (antibody, V domains shown) VH: QVQLVQSGAEVKKPGSSVKVSCKASGGTFSSYAISWVRQAPGQGLEWMGGIIPIFGTANYAQKFQGRVTITADESTSTAYMELSSLRSEDTAVYYCARHSIGWVAELDYWGQGTLVTVSS VL: DIQMTQSPSSLSASVGDRVTITCRASQSINTDLNWYQQKPGKAPKLLIYAASSLQSGVPSRFSGSGSGTDFTLTISSLQPEDFATYYCQQGASDPITFGQGTKVEIKR	0.202
INX918 | VSTB113 (antibody, V domains shown) VH: QVQLVQSGAEVKKPGSSVKVSCKASGGTFSSYAISWVRQAPGQGLEWMGGIIPIFGTANYAQKFQGRVTITADESTSTAYMELSSLRSEDTAVYYCARHSIGWVAELDYWGQGTLVTVSS VL: DIQMTQSPSSLSASVGDRVTITCRASQSIATDLNWYQQKPGKAPKLLIYAASSLQSGVPSRFSGSGSGTDFTLTISSLQPEDFATYYCQQAHWYPLTFGQGTKVEIKR	0.0433
VSTB105 (antibody, V domains shown) VH: QVQLVQSGAEVKKPGSSVKVSCKASGGTFSSYAISWVRQAPGQGLEWMGGIIPIFGTANYAQKFQGRVTITADESTSTAYMELSSLRSEDTAVYYCARSSYGWSYEFDYWGQGTLVTVSS VL: DIQMTQSPSSLSASVGDRVTITCRASQSIATNLNWYQQKPGKAPKLLIYAASSLQSGVPSRFSGSGSGTDFTLTISSLQPEDFATYYCQQNDDRPITFGQGTKVEIKR	0.115
VSTB108 (antibody, V domains shown) VH: QVQLVQSGAEVKKPGSSVKVSCKASGGTFSSYAISWVRQAPGQGLEWMGGIIPIFGTANYAQKFQGRVTITADESTSTAYMELSSLRSEDTAVYYCARNTFGWSGELDYWGQGTLVTVSS VL: DIQMTQSPSSLSASVGDRVTITCRASQSISNRLNWYQQKPGKAPKLLIYSASSLQSGVPSRFSGSGSGTDFTLTISSLQPEDFATYYCQQNHDNPITFGQGTKVEIKR	0.494
VSTB109 (antibody, V domains shown) VH: QVQLVQSGAEVKKPGSSVKVSCKASGGTFSSYAISWVRQAPGQGLEWMGGIIPIFGTANYAQKFQGRVTITADESTSTAYMELSSLRSEDTAVYYCARSSYGWSYEFDYWGQGTLVTVSS VL: DIQMTQSPSSLSASVGDRVTITCRASQSIATYLNWYQQKPGKAPKLLIYAASSLQSGVPSRFSGSGSGTDFTLTISSLQPEDFATYYCQQNHNRPITFGQGTKVEIKR	0.102
VSTB111 (antibody, V domains shown) VH: QVQLVQSGAEVKKPGSSVKVSCKASGGTFSSYAISWVRQAPGQGLEWMGGIIPIFGTANYAQKFQGRVTITADESTSTAYMELSSLRSEDTAVYYCARSSYGWSYEFDYWGQGTLVTVSS VL: DIQMTQSPSSLSASVGDRVTITCRASQSINTDLNWYQQKPGKAPKLLIYAASSLQSGVPSRFSGSGSGTDFTLTISSLQPEDFATYYCQQNRGSPITFGQGTKVEIKR	0.171
VSTB116 (antibody, V domains shown) VH: QVQLVQSGAEVKKPGSSVKVSCKASGGTFSSYAISWVRQAPGQGLEWMGGIIPIFGTANYAQKFQGRVTITADESTSTAYMELSSLRSEDTAVYYCARSSYGWSYEFDYWGQGTLVTVSS VL: DIQMTQSPSSLSASVGDRVTITCRASQSINTNLNWYQQKPGKAPKLLIYAASSLQSGVPSRFSGSGSGTDFTLTISSLQPEDFATYYCQQARDTPITFGQGTKVEIKR	0.213
INX910 | VSTB73 (antibody, V domains shown) VH: QVQLVQSGAEVKKPGASVKVSCKASGYTFTDYVISWVRQAPGQGLEWMGEIYPGSGNTYYYEKFKGRVTMTRDTSTSTVYMELSSLRSEDTAVYYCARVLVSVMDYWGQGTLVTVSS VL: EIVLTQSPDFQSVTPKEKVTITCSASSSINYITWYQQKPDQSPKLLIKDTSKLASGVPSRFSGSGSGTDFTLTINSLEAEDAATYYCHQRSSYPWTFGQGTRLEIKR	2.26
INX911 | VSTB76 (antibody, V domains shown) VH: QVQLVQSGAEVKKPGASVKVSCKASGYTFTDYWINWVRQAPGQGLEWMGNIYPSHSYTNYNQEFKDRVTMTRDTSTSTVYMELSSLRSEDTAVYYCARGGYRYPYYAMDYWGQGTTVTVSS VL: AIQLTQSPSSLSASVGDRVTITCGASENIYGALNWYQQKPGKAPKLLIYGATNLADGVPSRFSGSGSGTDFTLTISSLQPEDFATYYCQNVLSTPYTFGQGTKLEIKR	1.31
INX904 | VSTB103 (antibody, V domains shown, INX name = the VSTB variable regions with human IgG2 constant regions) VH: EVQLVQSGAEVKKPGESLKISCKGSGYSFTSYWIGWVRQMPGKGLEWMGIIYPGDSDTRYSPSFQGQVTISADKSISTAYLQWSSLKASDTAMYYCARDDALYGGYYLDYWGQGTLVTVSS VL: not shown	0.636
INX912 | VSTB84 (antibody, V domains shown) VH: QVQLVQSGAEVKKPGASVKVSCKASGYTFTSYWMHWVRQAPGQGLEWMGYINPSTGYPGYNQKFKDRVTMTRDTSTSTVYMELSSLRSEDTAVYYCARSYYDYDGGAWFAYWGQGTTVTVSS VL: DIVMTQTPLSLSVTPGQPASISCRASESVEYYGTSLMQWYLQKPGQPPQLLIYAASNVESGVPDRFSGSGSGTDFTLKISRVEAEDVGVYYCQQSRKVPSTFGQGTKLEIKR	2.03
VSTB100 (antibody, V domains shown) VH: EVQLVQSGAEVKKPGESLKISCKGSGYSFTSYWIGWVRQMPGKGLEWMGIIYPGDSDTRYSPSFQGQVTISADKSISTAYLQWSSLKASDTAMYYCARDVSSFYGYSPMFDYWGQGTLVTVSS VL: EIVLTQSPATLSLSPGERATLSCRASQSVSSYLAWYQQKPGQAPRLLIYDASNRATGIPARFSGSGSGTDFTLTISSLEPEDFAVYYCQQRSNWPLTFGQGTKVEIKR	1.48
VSTB104 (antibody, V domains shown) VH: EVQLVQSGAEVKKPGESLKISCKGSGYSFTSYWIGWVRQMPGKGLEWMGIIYPGDSDTRYSPSFQGQVTISADKSISTAYLQWSSLKASDTAMYYCARDANSFYSAASIFDYWGQGTLVTVSS VL: not shown	0.675
INX905 | VSTB53 (antibody, V domains shown, INX name = the VSTB variable regions with human IgG2 constant regions) VH: QVQLVQSGAEVKKPGASVKVSCKASGYTFTHYTIHWVRQAPGQGLEWMGYIIPSSGYSEYNQKFKDRVTMTRDTSTSTVYMELSSLRSEDTAVYYCARGAYDDYYDYYAMDYWGQGTLVTVSS VL: DIVMTQSPLSLPVTPGEPASISCRSSQTIVHSNGNTYLEWYLQKPGQSPQLLIYKVSNRFSGVPDRFSGSGSGTDFTLKISRVEAEDVGVYYCFQASHVPWTFGQGTKLEIK	0.0264
VSTB114 (antibody, V domains shown) VH: QVQLVQSGAEVKKPGSSVKVSCKASGGTFSSYAISWVRQAPGQGLEWMGGIIPIFGTANYAQKFQGRVTITADESTSTAYMELSSLRSEDTAVYYCARHSIGWVAELDYWGQGTLVTVSS VL: DIQMTQSPSSLSASVGDRVTITCRASQSIATSLNWYQQKPGKAPKLLIYYASSLQSGVPSRFSGSGSGTDFTLTISSLQPEDFATYYCQQGAYYPLTFGQGTKVEIKR	0.152
VSTB49 (antibody, V domains shown) VH: QVQLVQSGAEVKKPGASVKVSCKASGYTFPSHTIHWVRQAPGQRLEWMGSIYPFIDSTIYNQKFKDRVTITRDTSASTAYMELSSLRSEDTAVYYCARGIRGYTMDYWGQGTLVTVSS VL: DVVMTQSPLSLPVTLGQPASISCRASESVDNYGLSFMNWFQQRPGQSPRRLIYGASNQGSGVPDRFSGSGSGTDFTLKISRVEAEDVGVYYCQQSKEVPYTFGQGTKLEIKR	0.507
VSTB51 (antibody, V domains shown) VH: EVQLVESGGGLVQPGGSLRLSCAASGFTFSSYTMSWVRQAPGKGLEWVATISNSGSYTYYLDSVKGRFTISRDNAKNSLYLQMNSLRAEDTAVYYCARDTVLSPFDYWGQGTTVTVSS VL: EIVLTQSPDFQSVTPKEKVTITCSATSSISYMHWYQQKPDQSPKLLIKDTSELASGVPSRFSGSGSGTDFTLTINSLEAEDAATYYCHQRSSFTFGQGTKLEIKR	0.104
